B1: CPEB3 Ribozyme (parent)
chain: GGGGGCCACAGCAGAAGCGUUCACGUCGCGGCCCCUGUCAGAUUCUGGUGAAUCUGCGAAUUCUGCUGU

The variants in this data set derive from B1. The data set is described as follows: self-cleavage, relative activity (ratio to wild type); higher = more cleavage; co-transcriptional.
As to G19C U61A, the self-cleavage was 0.216. To U20C A40U belongs 0.227; to U20C A40C, 0.215; to G19C C57U, 0.146. Consider C18G U21A, for which the self-cleavage turned out to be 0.217. C18U G41A: the self-cleavage stood at 0.331. As for C18U G41C, the figure is 0.211; as for C18U G41U, 0.44; as for G19C U49A, 0.178. As for G19C C24A, the figure is 0.183; as for G19C C24G, 0.135; as for G19C C24U, 0.204. To G19A C54G belongs 0.159; to U20G U21C, 0.166. U20G G31U: the self-cleavage came to 0.128. As for U20G G25C, the figure is 0.227.

On to G19U U44C, for which the self-cleavage came to 0.232. To G19A U21G belongs 0.14.

In the case of G19A U21C, the self-cleavage amounted to 0.164. To G19A U21A belongs 0.143.

For the variant U20C C54A, the self-cleavage is 0.156. To G19A C35U belongs 0.188; to G19A C35A, 0.181. As for U20C G56U, the figure is 0.127.

U20C G56C: the self-cleavage is 0.203. As for G19U G68A, the figure is 0.793. As for G19U U20G, the figure is 0.139; as for G19C U64G, 0.139; as for G19C U64A, 0.176. To C18G U46G belongs 0.226. For the variant U20A G41A, the self-cleavage is 0.166.

With U20A G41U, the self-cleavage stood at 0.126.

As for G19A U61G, the self-cleavage came out at 0.164.

For G19C G25U, the self-cleavage turned out to be 0.145.

On to G19C G25A, for which the self-cleavage was 0.101. As for U20C C32G, the figure is 0.218; as for U20C C32U, 0.248; as for G19C U62A, 0.107.

Take G19C U62C: the self-cleavage amounted to 0.123.

With G19A U62C, the self-cleavage turned out to be 0.231. As for G19C A42G, the figure is 0.11; as for G19C A42U, 0.173; as for G19C A42C, 0.153.

For C18U G37U, the self-cleavage was found to be 0.198.

As for G19A U46A, the self-cleavage was 0.155. As for G19C U46G, the figure is 0.122; as for U20G G50U, 0.239.

With U20C A52G, the self-cleavage was 0.161. As for U20C G28U, the figure is 0.208; as for G19U C57A, 0.224; as for G19C C27A, 0.135. As to U20G C63A, the self-cleavage worked out at 0.157.

As to U20A C54A, the self-cleavage was found to be 0.125. To G19A U53C belongs 0.15; to G19A U53G, 0.18. As for U20A G50A, the self-cleavage was 0.147. As for U20C G68C, the figure is 0.211; as for U20C G68U, 0.195. To G19A C45A belongs 0.121.

Regarding G19A C45U, the self-cleavage worked out at 0.167. On to U20A U69A, for which the self-cleavage turned out to be 0.181.

Regarding C18U G19A, the self-cleavage was determined as 0.144. As for U20C C24U, the figure is 0.18. As for U20C C24G, the figure is 0.146; as for U20C C24A, 0.191. Turning to G19U A59C, the self-cleavage is 0.131. On to G19U C66U, for which the self-cleavage amounted to 0.382. To G19U G28C belongs 0.125; to G19A C63U, 0.116; to C18U U53G, 0.633. To C18U U53A belongs 0.632. To G19A U64A belongs 0.104. As for G19A U64G, the self-cleavage was determined as 0.12. As for U20C A51U, the figure is 0.172; as for U20C A51C, 0.259. As for G19C A60U, the figure is 0.128. To G19C A60G belongs 0.119; to U20G G30U, 0.191.

Regarding U20G G30C, the self-cleavage was 0.212. As for U20G C33U, the figure is 0.145; as for C18U C29G, 0.132.

Consider G19U C29U, for which the self-cleavage stood at 0.117.

Turning to G19A A60G, the self-cleavage worked out at 0.161. As for G19A U26G, the figure is 0.19; as for G19A U26C, 0.0939.

Take G19C G30U: the self-cleavage was determined as 0.157.

For the variant G19A A40G, the self-cleavage came out at 0.17.

As to C18U U26A, the self-cleavage was determined as 0.669. As for C18U U49A, the figure is 0.914; as for C18U U49C, 0.864. To G19A G47A belongs 0.122; to G19A G47U, 0.12; to U20A G37U, 0.169.

In the case of G19U G48A, the self-cleavage was determined as 0.673. To G19U G48C belongs 0.699. As for U20G C27A, the self-cleavage came to 0.105. As for U20G C27G, the figure is 0.177; as for C18G G65U, 0.161; as for C18U C57U, 0.3. As for G19A G37C, the figure is 0.128; as for G19A G37A, 0.142. Turning to G19C C33A, the self-cleavage was 0.196. For G19C G56U, the self-cleavage was 0.123.

With U20A U62G, the self-cleavage worked out at 0.0797. In the case of U20A U62C, the self-cleavage worked out at 0.148. As for C18U C66G, the figure is 0.341; as for U20G G48C, 0.224; as for C18U C24U, 0.4. As for U20G G37U, the figure is 0.182; as for G19U A60C, 0.18; as for C18U A60C, 0.288. As to C18U A60U, the self-cleavage was 0.318.

Consider G19C A23G, for which the self-cleavage is 0.11. As for C18U G56C, the figure is 0.341; as for C18U G56U, 0.578. To U20C C29G belongs 0.165; to G19A U67A, 0.147. On to C18G G68U, for which the self-cleavage was 0.311. To U20A C35U belongs 0.124. To G19A C22A belongs 0.104; to G19C G48C, 0.169.

G19C G48U: the self-cleavage came out at 0.141. As for G19C G48A, the figure is 0.189; as for G19A C34G, 0.181. As for U20G C24A, the figure is 0.128; as for G19C C63A, 0.144; as for G19C C63U, 0.135. With G19C C63G, the self-cleavage was 0.204. As for U20G C32G, the figure is 0.179; as for G19A U36C, 0.161; as for G19U C24A, 0.153. Regarding G19U C24U, the self-cleavage stood at 0.169. As for G19U C27U, the figure is 0.158. To U20C U69G belongs 0.394. As for U20A G58C, the figure is 0.164; as for C18U U69A, 0.944; as for U20C U67C, 0.131.

For the variant C18G U55G, the self-cleavage came to 0.175.

For the variant G19A C29A, the self-cleavage was 0.159. To U20C G37C belongs 0.0963. Take G19C A51U: the self-cleavage stood at 0.157. In the case of G19C A51G, the self-cleavage stood at 0.182.

In the case of C18G U44C, the self-cleavage amounted to 0.125. To C18G U44G belongs 0.169; to U20G G58C, 0.099; to G19U U21G, 0.159. To G19U U21A belongs 0.31.

Regarding G19A U43A, the self-cleavage stood at 0.108. As for G19A U43C, the figure is 0.116; as for G19C G50C, 0.148; as for C18U C22A, 0.0833. To C18U U64A belongs 0.351; to C18U U64C, 0.383; to G19C U44C, 0.164.

As to G19U C35U, the self-cleavage was 0.262. To G19U C35A belongs 0.119; to C18G U61A, 0.223; to U20A C39G, 0.251. As for U20C U44G, the figure is 0.149; as for U20C U44C, 0.123. U20A A59U: the self-cleavage turned out to be 0.106.

In the case of G19A U69C, the self-cleavage stood at 0.333. To G19A U69G belongs 0.249; to C18U C39G, 0.491.

G19C A59C: the self-cleavage amounted to 0.0891. To G19C A59U belongs 0.185; to U20A U36A, 0.158.
